Source: patent US7063950

Molecular target: human neuronal calcium channel α1B-1α2bβ1-2 (human)
Assay: ω-CgTx binding to transiently transfected HEK293 cells (plasmid ratio 2:1.8:1)

## ω-CgTx GVIA (from UniProt P01522 46-72) (peptide)
  Kd: 0.0546 nM
  binding capacity (Bmax) (sites per cell): 28700
